# Experimental data as given in patent publication US6723833.
# Like-named read-outs stand apart in the source and are kept apart here.
# B1: MaE11 (antibody, mouse IgG1, V domains shown)
# VH: DVQLQESGPGLVKPSQSLSLACSVTGYSITSGYSWNWIRQFPGNKLEWMGSITYDGSSNYNPSLKNRISVTRDTSQNQFFLKLNSATAEDTATYYCARGSHYFGHWHFAVWGAGTTVTVSS
# VL: DIQLTQSPASLAVSLGQRATISCKASQSVDYDGDSYMNWYQQKPGQPPILLIYAASYLGSEIPARFSGSGSGTDFTLNIHPVEEEDAATFYCQQSHEDPYTFGAGTKLEIK
# How the values were obtained:
# [1] = molecular target: human IgE bound to FcεRI (IgE-loaded FcεRI α-chain on CHO 3D10 cells) (human) (UniProt P01854); test: FACS on IgE-loaded CHO 3D10 cells (FIG. 4)
# human IgE bound to FcεRI (IgE-loaded FcεRI α-chain on CHO 3D10 cells) (human), sequence (P01854 whole entry, chain 1 of 2): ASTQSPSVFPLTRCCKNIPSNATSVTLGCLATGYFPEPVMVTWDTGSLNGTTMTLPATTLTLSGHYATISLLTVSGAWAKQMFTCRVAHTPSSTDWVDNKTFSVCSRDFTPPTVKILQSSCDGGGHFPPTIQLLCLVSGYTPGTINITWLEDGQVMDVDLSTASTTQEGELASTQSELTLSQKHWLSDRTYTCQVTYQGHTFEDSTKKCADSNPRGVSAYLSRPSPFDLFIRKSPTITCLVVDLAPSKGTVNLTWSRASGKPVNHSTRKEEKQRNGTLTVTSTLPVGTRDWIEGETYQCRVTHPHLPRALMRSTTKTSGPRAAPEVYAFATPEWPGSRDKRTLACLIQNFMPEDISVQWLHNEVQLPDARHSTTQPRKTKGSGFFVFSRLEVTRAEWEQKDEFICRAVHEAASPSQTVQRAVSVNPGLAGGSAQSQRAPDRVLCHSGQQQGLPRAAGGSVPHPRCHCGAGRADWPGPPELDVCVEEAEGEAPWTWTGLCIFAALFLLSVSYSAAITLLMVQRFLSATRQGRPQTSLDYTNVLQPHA
# human IgE bound to FcεRI (IgE-loaded FcεRI α-chain on CHO 3D10 cells) (human), sequence (P12319 26-257, chain 2 of 2, further chain): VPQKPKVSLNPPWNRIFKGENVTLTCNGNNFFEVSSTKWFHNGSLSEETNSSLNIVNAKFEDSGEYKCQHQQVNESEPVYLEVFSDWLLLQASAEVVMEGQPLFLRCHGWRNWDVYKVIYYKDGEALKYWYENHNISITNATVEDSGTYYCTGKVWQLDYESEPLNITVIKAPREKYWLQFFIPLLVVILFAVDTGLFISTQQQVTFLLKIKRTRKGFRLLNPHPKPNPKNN
# [2] = molecular target: human IgE bound to FcεRI (IgE-loaded FcεRI α-chain on CHO 3D10 cells) (human) (UniProt P01854); test: FACS on IgE-loaded CHO 3D10 cells (FIG. 4); isotype control
# [3] = molecular target: human IgE bound to FcεRI (IgE-loaded FcεRI α-chain on CHO 3D10 cells) (human) (UniProt P01854); test: cell-based or functional assay
# [4] = molecular target: membrane IgE on U266B1 cells (human) (UniProt P01854); test: FACS on U266B1 cells (membrane IgE+)
# membrane IgE on U266B1 cells (human), sequence (P01854 whole entry, one chain of several): as the sequence (P01854 whole entry, chain 1 of 2) above
# [5] = molecular target: human IgE (affinity purified from U266B1 myeloma culture supernatant) (human) (UniProt P01854); test: equilibrium binding of 125I-IgE, Scatchard analysis
# human IgE (affinity purified from U266B1 myeloma culture supernatant) (human), sequence (P01854 whole entry, form in doubt, one chain of several): as the sequence (P01854 whole entry, chain 1 of 2) above
# [6] = molecular target: human IgE (affinity purified from U266B1 myeloma culture supernatant) (human) (UniProt P01854); test: soluble receptor assay: inhibition of biotin-IgE binding to plate-coated FcεRI α-chain IgG chimera
# [7] = molecular target: human IgE (affinity purified from U266B1 myeloma culture supernatant) (human) (UniProt P01854); test: as above; remark: listed apart in the source
molecule,measurement,setting,value
MOPC21 (antibody),mean channel fluorescence at 0.1 µg/ml (mean channel fluorescence),[1],7.3
same,nonspecific background binding,[2],10%
B1,"PBL histamine release (EC50), IgE-loaded peripheral blood basophils",[3],> 100 µg/mL
same,EC50,[4],0.15 µg/mL
same,mean channel fluorescence at 0.1 µg/ml (mean channel fluorescence),[1],6.4
same,Kd,[5],30 nM
same,IC50,[6],0.179 µg/mL
same,ratio F(ab)-X/F(ab)-2,[6],0.03
same,ratio F(ab)-X/MaE11,[6],1
same,IC50,[7],0.449 µg/mL
same,ratio Variant X/IgG1-2,[7],0.06
same,ratio Variant X/MaE11,[7],1
